The data set is described as follows: yeast display, Sf9 membrane polyspecificity reagent, FACS + sequencing; frameworks hold sequencing errors. A digest of the protocol: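 After 36–48 hours of galactose induction, yeast (Saccharomyces cerevisiae BJ5465) displaying a synthetic nanobody library were stained at 4 °C for 1 hour with 10% biotinylated, detergent-solubilized Sf9 membrane reagent. Streptavidin microbeads enriched the stained cells before FACS sorting into low and high (top ~1%) gates on anti-HA and streptavidin fluorescence. Each clone's polyreactivity label reflects its gate of origin.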
For “QVQLVESGGGLVQAGGSLRLSCAASGFIFYYYAMGWYRQAPGKERELVAAISRSGGSTYYADSVKGRFTISRDNAKNTVYLQMNSLKPEDTAVYYCAVYGYYALTHWEYDYWGQGTQVTVSS”, the “polyreactivity (PSR sort gate)” value is given as “high polyreactivity”.
To “QVQLVESGGGLVQAGGSLRLSCAASGFIFYYYAMGWYRQAPGKERELVAAITSSGGSTYYADSVKGRFTISRDNAKNTVYLQMISLKPEDTAVYYCNALQYSRMDYWGQATQVTVSS” belongs “high polyreactivity”; to “QVQLVESGGGLVQAGGSLRLSCAASGFIFYYYAMGWYRQAPGKERELVASISSDGSTYYADSVKGRFTISRDNAKNTVYLQMNSLKPEDTAVYYCNADRYYPDDLSDGVGTYDYWGQGTQVTVSS”, “low polyreactivity”.
In the case of “QVQLVESGGGLVQAGGSLRLSCAASGFIIDCYAMGRYRQAPGKERELVAVISQRGSNTYYADSVKGRFTISRDHAKNTVYLQMNSLKPEDTAVYYCAARYKQGDSTGGRMNYWGQGTQVTVSS” it was “high polyreactivity”; in that of “QVQLVESGGGLVQAGGSLRLSCAASGFIIDTYPMGCYRQAPGKERELVAAITRSGGSTYYADSVKGRFTISRDNAKNTVYLQMNSLKPEDTAVYYCAARQRYTRYDYWGQGTQVTVSW”, “high polyreactivity”; in that of “QVQLVESGGGLVQAGGSLRLSCAASGFIIDYYAKGWYRQAPGKERELVASITDSTTYYADSVKGRFTISRDNAKNTVYLQMNSLKPEDTAVYYCNARGGYAYVLYDYWGQGTQVTVSS”, “low polyreactivity”.
In the case of “QVQLVESGGGLVQAGGSLRLSCAASGFIIFDYAMGWYRQAPGKESELVAAITSGGSTDYADSVKGRFTLSRDNAKNTVYLQMNSLKPEDTAVYYCAAVYGSVSRYDYWGQGTQVTVSA” it was “low polyreactivity”; in that of “QVQLVESGGGLVQAGGSLRLSCAASGFIIKANAMGWYRQAPGKERELVASITFGGDSTYYADSVKGRFTISRDNAKNTVYLQMNSLKPEDTAVYYCNTRRRSYRTYYYWGQGTQVTVLS”, “low polyreactivity”; in that of “QVQLVESGGGLVQAGGSLRLSCAASGFIIKGNVMGWYRQAPGKERELVAAITRRGSTYYADSVKGRFTISRDNAKNTVYLQMNSLKPEDTAVYYCAARPWKAIEKVDGSGGGDYWGQGTQVTVSS”, “low polyreactivity”.
Take “QVQLVESGGGLVQAGGSLRLSCAASGFIIKSYAMGWYRQAPGKERELVAAISYTGSITYYADSVKGRFTISRDNAKNTVYLQMNSLKPEDTAVYYCAVGRYADQHDYWGQGTQVTVSS”: the “polyreactivity (PSR sort gate)” value was “high polyreactivity”.
In the case of “QVQLVESGGGLVQAGGSLRLSCAASGFIIPGYAMGWYRQAPGKERELVAAISSGTSTYYADSVKGRFTISRDNAKNTVYLQMNSLKPEATAVYYCAADTWYRFGYWGQGTQVTVSS” it was “low polyreactivity”; in that of “QVQLVESGGGLVQAGGSLRLSCAASGFIIPGYAMGWYRQAPGKERELVAAISSGTSTYYEDSVKGRFTISRDNAKNTVYLQMNSLKPEATAVYDCAAETWYRFGYWGQGTQVTVSS”, “low polyreactivity”.
To “QVQLVESGGGLVQAGGSLRLSCAASGFIIPYYAMGWYRQAPGKERELVAAISRSGGSTYYADSVKGRFTISRDNAKNTVYLQMHSLKPEDTAVYYCATRKGGTLYNYWGQGTQVTVSS” belongs “high polyreactivity”.
Take “QVQLVESGGGLVQAGGSLRLSCAASGFIIQGNALGWYRQAPGTERELVAAISSSVSTYYADSVKGRFTISRDNAKNTVYLQMNSLKPEDNAVYDCNAGFPLSLWLGDYWGQGTLVTVSS”: the “polyreactivity (PSR sort gate)” value was “low polyreactivity”.
To “QVQLVESGGGLVQAGGSLRLSCAASGFIIRGNVMGWSRQAPGKERELVAAISGRGGSTYYADSVKGRFTISRDNAKNTVYLQRNILKPEDTGVYYCNAAGLYNSRLDYWGQGTQVTVSS” belongs “high polyreactivity”.
For “QVQLVESGGGLVQAGGSLRLSCAASGFIITYYAMGWYRQATGKDRELVAVISWSGGTTYYAESVKGRFTISRDNATNTVYLQMNSLKPEDTAVYYCAAYRYFRPGDYWGQGTQVTVSS”, the “polyreactivity (PSR sort gate)” value was “low polyreactivity”.
To “QVQLVESGGGLVQAGGSLRLSCAASGFIIYFNAMGWYRQPRGKERELVASITSGASTNYADSVKGRFTISRDNAKNTVYLQMNSLKPEDTAVYYCAAAYFWLDPYVEYDYWGQGTQVTVSS” belongs “low polyreactivity”; to “QVQLVESGGGLVQAGGSLRLSCAASGFILDTYGMGWYRQAPGKERELVAAISQSDVSTYYADSVKGRFTISRDNAKNTVYLQMNSLKPEDTAVYYCNAGAGKRGYDYWGQGTQVTVSS”, “low polyreactivity”; to “QVQLVESGGGLVQAGGSLRLSCAASGFILDWYAMGWYRQAPGKERELVAAISYSGGSTYYADSVKGRFTISRDNAKNTVYLQMNSLKPEDTAVYYCNADIWYGDMDYWGQGTQVTVSS”, “high polyreactivity”.
Regarding “QVQLVESGGGLVQAGGSLRLSCAASGFILDYNAMGWYRQAPGKERELVAAITNGGITYYADSVKGRFTISRDNAQNTVYLQMNSLKPEDTAVYYCAADNDTDHSSATYGYDYWGQGTQVTVSS”, the “polyreactivity (PSR sort gate)” value was “low polyreactivity”.
Consider “QVQLVESGGGLVQAGGSLRLSCAASGFILDYNTMGWYRQAPGNERELVAAISSSGDTTYYADSVKGRFTISRDNAKNTVYLQMNSLKPEDTAVYYCAREYGDGYEYWGQGTQVTVSS”, for which the “polyreactivity (PSR sort gate)” value is “low polyreactivity”.
In the case of “QVQLVESGGGLVQAGGSLRLSCAASGFILDYYAMGWYRQAPGKERELVATITGRGDRTYYADSVKGRFTISRDNAMNTVYLQMNSLKPEDTAVSYCAAGFDGSRHPGFDSWGQGTQVTVSS” it was “low polyreactivity”.
In the case of “QVQLVESGGGLVQAGGSLRLSCAASGFILEDYTMGWYRQAPGKERELVAAISSGGTRTYYADSVKGRFTISRDNAKNTVYLQMNSLKPEDTAVYYCTTRRGERGYWGQGTQVTVSS” it was “high polyreactivity”; in that of “QVQLVESGGGLVQAGGSLRLSCAASGFILFFNAMGWYRAPWKERELVAGITQSGGSTYYADSVKGRFTISRDNAKNPVYLQMNSLKPEDTAVYYCAAELYDRWSRMDYWGQGTQVTVSS”, “low polyreactivity”; in that of “QVQLVESGGGLVQAGGSLRLSCAASGFILGRYAMGWYRQAPGKERELVAAISIGGRTNYADSVKGRFTISRDNAKNTVYLQMNSLKPEDTEVYYCAVDRYVTYSLSNSLYEYWGQGTQVTVSS”, “low polyreactivity”.
In the case of “QVQLVESGGGLVQAGGSLRLSCAASGFILGTYAMGWYRQATGKERELVADISWSVGSTYYADSVKGRFTISRDNAKNTVYLQMISLKPEDTAVYYCNADGYTLWYEYDYWGQGTQVTVSS” it was “low polyreactivity”; in that of “QVQLVESGGGLVQAGGSLRLSCAASGFILGVYAMGWYRQAPGKERELVAAITFSGASTYYADSVKGRFTISRDNAKNTVYLQMNSLKPEDTAVYYCNKTSAYYRYEYWGQGTQVTVSS”, “low polyreactivity”.
“QVQLVESGGGLVQAGGSLRLSCAASGFILNFYAMGWYRQAPGKERELVAAISTSGGSTYYADSVKGRFTISRDNAKNTVYLQMNSLKPEDTAGYYCAARRARTYHTSSGYRGYYYWGQGTQVTVSS”: the “polyreactivity (PSR sort gate)” value is “high polyreactivity”.
To “QVQLVESGGGLVQAGGSLRLSCAASGFILWYYTMGWYRQAPGKERELVAVIDWSGDSTYADSVKGRFTISRDNAKNTVYLQMNSLKPEDTAVYYCNKGYPSPQDTYYVPMDYWGQGTQVTVSS” belongs “low polyreactivity”; to “QVQLVESGGGLVQAGGSLRLSCAASGFILYSYAMGWYRQAPGKERELVAGISIGGITNYADSVKGRFTISRDNAKNTVYLQMNSLKPEDTAVYYCATDGTTYIWDGDYWGQGTQVTVSS”, “low polyreactivity”.
Take “QVQLVESGGGLVQAGGSLRLSCAASGFILYYYAMGWYRQAPGKERELVASISRRGGSTYYADSVKGRFTISRDNAKNTVYLQMNSLKPEDTAVYYCAATETTSRRFGYDYWGQGTQVTVSS”: the “polyreactivity (PSR sort gate)” value is “high polyreactivity”.
For the sequence “QVQLVESGGGLVQAGGSLRLSCAASGFIMDNYAMGCYRQAHGKERELVAAISGSGGSTYYADSVKGRFTISRDNAKNTVYLQMNSLKPEDTAVYYCNRDRLLRQYDYWGQGTQVTVSS”, the “polyreactivity (PSR sort gate)” value is given as “high polyreactivity”.
In the case of “QVQLVESGGGLVQAGGSLRLSCAASGFIMDYNTMGGYRQAPGKERELVAAISSSGDTTYYAASVKGRFTISRDNAKNSVYLQMNCLKPDDTAVYYCAREYGDGYEYWGQGTQVTVSS” it was “low polyreactivity”.
On to “QVQLVESGGGLVQAGGSLRLSCAASGFISAGYAMGWYRQAPGKERELVAAISRRGGRTYYADSVKGRFTISRDNAKNTVYLQLNSLKPEDTAVYYCAAGSPHSAFAGPYDYWGQGTQVTVSS”, for which the “polyreactivity (PSR sort gate)” value is “high polyreactivity”.
In the case of “QVQLVESGGGLVQAGGSLRLSCAASGFISARYAMGWYRQAPGKERELVAGISGGGGRTYYADSVKGRFTISRDNAKNTVYLQMNSLKPEDTAVFYCAATLQSRDRRFNYWGQGTQVTVSS” it was “high polyreactivity”.
Consider “QVQLVESGGGLVQAGGSLRLSCAASGFISFPYAMGWYRQAPGKERELDASITRSGGNTYYADSVKGRFTISRDNAKNTVYLQMNRLKPEDTAVYYCNAQIYTYRTGRGYSRLDYWGQGTQVTVSS”, for which the “polyreactivity (PSR sort gate)” value is on record as “high polyreactivity”.
As for “QVQLVESGGGLVQAGGSLRLSCAASGFISRYYYMGWYRQAPGKERELVAAIRWSGDRTYYADSVKGRFTISRDNAKNTVYLLMNSLKPEDTAVYYCNADVVLGRSWRGYWGQGTQVTVSS”, the “polyreactivity (PSR sort gate)” value is given as “high polyreactivity”.
In the case of “QVQLVESGGGLVQAGGSLRLSCAASGFISSDYAMGWYRQAPGKEREFVAGISRGGGSTYYADSVKGRFTISRDHAKNTVYLQMISLKPEDTAVYYCNARTSLRKYQYYYWGQGTQVTVSS” it was “high polyreactivity”; in that of “QVQLVESGGGLVQAGGSLRLSCAASGFISSHYAMGWYRQAPGKERELVAAISTNGGSTYYADSVKGRFTISRDNAKNTVYLQMNSLKPEDTAVYYCAAEFAVSFYWSWLGQDYNYWGQGTQVTVSS”, “high polyreactivity”; in that of “QVQLVESGGGLVQAGGSLRLSCAASGFISTINVMGWYRQAPGKEREMVAAMTYIDGSTFYADSVKGRFTISRDNAKNTVYLQMNSLKPEDTAVYYCAADLYQWGAVFLYVRSTGLDYWGQGTQVTVSS”, “low polyreactivity”.
As for “QVQLVESGGGLVQAGGSLRLSCAASGFISYFYAMGWYRQAPGKERELVAAISWNGARTYYADSVKGRFTISRDNAKNTVYLQMNSLKPEDTAVYYCNAGTFTRRRGLDYWGQGTQVTVSS”, the “polyreactivity (PSR sort gate)” value is “low polyreactivity”.

The values are drawn from the nanobody polyreactivity screen of Harvey et al. (2022).
